Assay [1] deals with T1, SARS-CoV-2 RBD-SD1-2 (residue 320-681) (SARS-CoV-2, Wuhan-Hu-1 (MN908947), UniProt P0DTC2).
T1 construct: source: FreeStyle293F, transfected, purified (Ni-NTA, SEC)
The assay is described as follows: BLI. The following applies: both partners purified.

Assay [2] addresses T2, SARS-CoV-2 RBD-SD1 (residue 320-591) (SARS-CoV-2, Wuhan-Hu-1 (MN908947), UniProt P0DTC2).
T2 construct: source: FreeStyle293F, transfected, purified (Ni-NTA, SEC)
Put plainly: BLI. The note with it: both partners purified.

Assay [3] addresses T3, SARS-CoV-2 N-terminal domain-NTD (residue 1-290) (SARS-CoV-2, Wuhan-Hu-1 (MN908947), UniProt P0DTC2).
T3 construct: source: FreeStyle293F, transfected, purified (Ni-NTA, SEC)
Put plainly: BLI. The note with it: both partners purified.

Assay [4] addresses T4, SARS-CoV-2 receptor-binding domain-RBD (residue 320-527) (SARS-CoV-2, Wuhan-Hu-1 (MN908947), UniProt P0DTC2).
T4 construct: source: FreeStyle293F, transfected, purified (Ni-NTA, SEC)
The assay is described as follows: BLI. The note with it: both partners purified.

The target of assay [5] is T5, HCoV-HKU1 spike protein, full-length, expressed on the HEK293T cell surface (HCoV-HKU1, isolate N1 (YP_173238.1), UniProt Q5MQD0).
T5 construct: also called HKU1-CoV S; source: HEK293T, transfected (phCMV3), on the cell surface
The assay is described as follows: flow cytometry on cells. The following applies: one partner purified. On the technique in general: In flow cytometry, cells or beads pass a laser one at a time.

For assay [6], the target named is T6, HCoV-NL63 spike protein, full-length, expressed on the HEK293T cell surface (HCoV-NL63 (YP_003767.1), UniProt Q6Q1S2).
T6 construct: source: HEK293T, transfected (phCMV3), on the cell surface
The assay is described as follows: flow cytometry on cells. The note with it: one partner purified.

Assay [7] deals with T7, SARS-CoV-2 spike protein, full-length, expressed on the HEK293T cell surface (SARS-CoV-2, Wuhan-Hu-1 (MN908947), UniProt P0DTC2).
T7 construct: source: HEK293T, transfected (phCMV3), on the cell surface
Put plainly: flow cytometry on cells. The note with it: one partner purified.

The target of assay [8] is T8, HCoV-229E spike protein, full-length, expressed on the HEK293T cell surface (HCoV-229E (NP_073551.1), UniProt P15423).
T8 construct: source: HEK293T, transfected (phCMV3), on the cell surface
Put plainly: flow cytometry on cells. The following applies: one partner purified.

For assay [9], the target named is T9, HCoV-OC43 spike protein, full-length, expressed on the HEK293T cell surface (HCoV-OC43).
T9 construct: source: HEK293T, transfected (phCMV3), on the cell surface
Put plainly: flow cytometry on cells. The note with it: one partner purified.

The target in assay [10] is T10, HCoV-HKU1 soluble S ectodomain protein (residue 1-1295), prefusion-stabilized, with T4 fibritin trimerization … (HCoV-HKU1, isolate N1 (YP_173238.1), UniProt Q5MQD0, A1071/L1072 replaced by proline residues).
T10 construct: also called HCoV-HKU1 S-protein; HKU1-CoV S protein; source: FreeStyle293F, transfected, purified (Ni-NTA or GNL column, SEC)
Put plainly: BLI. The note with it: both partners purified.

Where a chain is given by its changes, count along the chain named.

B1: mAb CC9.1 (antibody, V domains shown)
VH: EVQLVESGGGLVQPGRSLRLSCVAPGFTLGGYGMHWVRQAPGKGLEWVGLISYDGSVQKYGSSVKGRFTISKDNSKNTLYLEMNSLRADDTAVYFCVKGASLGDNWGQGTLVTVSS
VL: EIVMTQSPLSLPVTLGQPASISCRSSQSLVYSDGDTYMSWFHQRPGQSPRRLIYKVSNRDSGVPDRFSGSGSGTDFTLKISRVEAEDVGVYYCMQGTHWPYTFGPGTKVEIK
As for B1, the binding result is on record as “no binding” in [1]; “no binding” in assay [2]; “no binding” in [3]; “no binding” in assay [4]; “binds” in [5]; “no binding” in assay [6]. Also, the binding result in [7] was “binds”; in assay [8] it was “no binding”; in [9], “binds”.

B2: Fab CC9.2 (Fab, V domains shown)
VH: B1 VH
VL: B1 VL with S61F
notes: also called CC9.2 Fab
Regarding B2, in [10], the binding result is reported as “binds”.

B3: mAb CC9.2 (IgG) (antibody, V domains shown)
VH: B1 VH
VL: B1 VL with S61F
B3: the binding result in assay [1] was “no binding”; in assay [10], “binds”; in [2] it was “no binding”; in [3], “no binding”; in assay [4] it was “no binding”; in [5], “binds”. Further, the binding result is “no binding” in assay [6], “binds” in [7], “no binding” in assay [8] and “binds” in assay [9].

B4: second SARS-CoV-2/HCoV-HKU1 cross-reactive mAb from the CC40 donor (its name is not printed in the text) (antibody, V domains shown)
VH: EVQLVESGGGVVQPGRSLRLSCVASGFTFSNYGMHWVRQAPGKGLEWVAVMSYDGSVTYYGDSVRGRFTISRDNSKNTLYLQMSSLRTDDTGVYYCAKGQPLDDIWGLGTLVTVSS
VL: EIVMTQSPLSLPVSLGQSASISCRSSQSLVHTDGITYLSWFQQRPGQSPRRLLYKVSNRDSGVPDRFSGSGSGTDFTLKISRVEAEDVGVYYCLQGTYWPWTFGQGTKVEIK
notes: also called one of the two cross-reactive mAbs from the CC40 donor
As to B4, the binding result is on record as “no binding” in [1]; “no binding” in [2]; “no binding” in assay [3]; “no binding” in assay [4]; “binds” in [5]; “no binding” in assay [6]. The results for the binding result in [7], in [8] and in assay [9] were “binds”, “no binding” and “binds”, respectively.
